Results taken from the supplement of paper PMC10567573.
± gives the standard deviation.

Test: protein stability index of a GFP-peptide fusion (GPS, HEK-293T) (PSI 1-6); higher = more stable
Settings: c terminus: a fixed tail appended
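Also: 24-mer peptide tiles fused after GFP, lentivirally expressed, FACS-sorted into six equal bins by GFP/DsRed ratio, decoded by Illumina sequencing, PSI is the read-weighted mean bin number.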

| Sequence | protein stability index (treatment: DMSO) | protein stability index (treatment: MLN4924 1 uM, 8 h) |
| --- | --- | --- |
| QIITVTVQTGLDQYQQVPVEIVKS [IQUB] | 2.32 ± 0.17 | 2.07 ± 0.38 |
| QKENVFKCDSLKEECIPEHMVRES [FAN1] | 4.56 ± 0.38 | 4.56 ± 0.19 |
| QKNFNNLYGTKGNYTSRVWEYSSS [TRIM29] | 2.31 ± 0.4 | 2.51 ± 0.12 |
| QKRYHCKECGKVFSQSAGLIQHQR [ZSCAN9] | 3.3 ± 0.35 | 3.63 ± 0.63 |
| QLCDVSIRVQGREFRAHRAVLAAS [ZBTB22] | 2.58 ± 0.35 | 2.77 ± 0.3 |
| QLILFGLSNQLAVTFREENTIAFR [MCOLN1] | 2.65 ± 0.49 | 2.33 ± 0.64 |
| QLVLVAAGFDALQGDPKGEMAATP [HDAC6] | 2.75 ± 0.057 | 2.8 ± 0.43 |
| QNKAQRQKDLIMKVENLTLKNHFQ [TAF7L] | 3.08 ± 0.28 | 3.1 ± 0.13 |
| QPPPQEEPGTPSSSPDDKLLTSPR [KLHL14] | 5.52 ± 0.16 | 5.48 ± 0.15 |
| QQLAAEPVPTGFFNMWGFGRVSKQ [WDR41] | 3.56 ± 0.35 | 3.49 ± 0.25 |
| QQLLHHARNGNAEEVRQLLETMAR [OSBPL1A] | 3.15 ± 0.38 | 3.78 ± 0.3 |
| QQVKCIITEEKVCMVCKKKIGNSA [VPS39] | 3.24 ± 0.4 | 3.6 ± 0.66 |
| QRPVSRQVTCLRTQVLEDSEDSFC [TRAF3IP2] | 4.68 ± 0.19 | 4.53 ± 0.14 |
| QRVGFGDDFDEDELMAELEELEQE [CHMP4C] | 5.33 ± 0.4 | 5.35 ± 0.23 |
| QSLDEPGGATFLLTAKQLIKSIVE [TRIM63] | 2.6 ± 0.33 | 2.32 ± 0.37 |
| QSLPCTERKPAATARLSRRGTSLS [KISS1] | 4.71 ± 0.2 | 4.66 ± 0.32 |
| QVHRQGERRRELVRSQTLPRTSEA [SMTNL2] | 4.957 ± 0.024 | 4.98 ± 0.16 |
| QVYLSHTAWTEACQVEVRLLLAYN [INTS4] | 3.15 ± 0.51 | 3.09 ± 0.19 |
| RADPLVCATGLLGSAPFLFLSLAC [SPNS1] | 3.37 ± 0.32 | 3.04 ± 0.22 |
| RAHPPQRPASSGGAHTLVNHGYAE [KCNA3] | 4.12 ± 0.13 | 3.94 ± 0.3 |
| RAVLKYLYTGELDENERDLMHIAH [RHOBTB2] | 2.34 ± 0.13 | 2.49 ± 0.27 |
| RAYGFRGPGPQLRRGWRPSSREDS [CHGA] | 3.9 ± 0.4 | 4.07 ± 0.47 |
| RDKAEELLQLPDTKVGSFMIRESE [SLA] | 4.66 ± 0.37 | 4 ± 0.79 |

| Sequence | protein stability index (treatment: DMSO) | protein stability index (treatment: MLN4924 1 uM, 8 h) |
| --- | --- | --- |
| RDLKLCRFVFADRERKKLVLENLE [TRIB3] | 2.36 ± 0.23 | 2.51 ± 0.25 |
| REQILRVKDTDDVPMILVGNKCDL [RAP1B] | 3.95 ± 0.28 | 3.98 ± 0.14 |
| REVKVLLDQLRFPNGVQLSPAEDF [APMAP] | 2.97 ± 0.4 | 2.95 ± 0.5 |
| RFTRTPVDQTGVSGGVASFICQAT [PTPRD] | 3.12 ± 0.28 | 3.19 ± 0.37 |
| RFYRSPEVLLGTPYDLAIDMWSLG [DYRK1B] | 1.78 ± 0.42 | 2.29 ± 0.35 |
| RGDPLGGCQVSPEGYAHLTHLLMG [HDAC6] | 2.35 ± 0.31 | 2.71 ± 0.47 |
| RGLHEDLQGVPERLLGTAGTEEKK [VTI1B] | 5.38 ± 0.07 | 5.58 ± 0.26 |
| RGRAREREQLQAEASERFAAGYIQ [HES6] | 4.58 ± 0.2 | 4.57 ± 0.1 |
| RGSDLKVLEVTEESIDFDQGELAD [FBXO33] | 5.42 ± 0.14 | 5.519 ± 0.053 |
| RGTHLWEFIRDILIHPELNEGLMK [ELF3] | 2.54 ± 0.59 | 2.31 ± 0.42 |
| RHDSETEDMLWDDLLHGPECRSSV [PHTF1] | 4.68 ± 0.24 | 4.7 ± 0.2 |
| RHIFMGYLESETETTEAIDDEGWL [ACSBG2] | 4.08 ± 0.27 | 4.13 ± 0.16 |
| RIADKFTQHNFQEVMESEEFMLLP [KLHL20] | 3.5 ± 0.35 | 3.54 ± 0.22 |
| RIHSGEEPHKCPECGKRFLRSSDL [ZNF449] | 3.51 ± 0.73 | 4.09 ± 0.34 |
| RLFTQLKFGVVQTSVEECSQKGCL [CLCN6] | 2.29 ± 0.46 | 2.61 ± 0.27 |
| RLHHPHKSVQHVVLQALFYLLDRA [PTPN9] | 2.28 ± 0.21 | 2.13 ± 0.36 |
| RLLMSQADKMTAEEVDQMFQFASI [MYL5] | 3.06 ± 0.26 | 3.1 ± 0.37 |
| RLNIKKDDEFFHFVLLCFAIGALL [TMEM40] | 2.73 ± 0.8 | 2.19 ± 0.54 |
| RLPRAIGMSLAKELIFSARVLDGK [AUH] | 1.83 ± 0.39 | 1.9 ± 0.2 |
| RLVLDAALALQARGCSVKIWTAHY [ALG2] | 2.87 ± 0.68 | 2.69 ± 0.72 |
| RMENVTVLGEDVIVNDELYLNGAS [GMPPB] | 4.09 ± 0.072 | 4.1 ± 0.29 |
| RMGSSESTDSGFCLDSPGPLDSKE [CDC25A] | 5.45 ± 0.14 | 5.47 ± 0.44 |
| RMIFKLFSQETVMKFVPRYSLVLE [APMAP] | 2.74 ± 0.55 | 2.51 ± 0.37 |

| Sequence | protein stability index (treatment: DMSO) | protein stability index (treatment: MLN4924 1 uM, 8 h) |
| --- | --- | --- |
| RMLHRSTQTTNDGVCQSMCHDKYT [ZMYND11] | 3.94 ± 0.18 | 4.04 ± 0.32 |
| RNALENIRKEMKLLEQAGSLKGSL [CRYL1] | 3.32 ± 0.64 | 3.62 ± 0.32 |
| RNEGVSSVLLGASNADQLMENIGA [KCNAB2] | 4.25 ± 0.09 | 4.42 ± 0.12 |
| RNGGKYCEGRRTRFRSCNTEDCPT [ADAMTS4] | 4.15 ± 0.34 | 4.09 ± 0.32 |
| RNMLGLLGNVAEVKELRPQLMTSQ [ZER1] | 3.09 ± 0.3 | 3.49 ± 0.69 |
| RNRPSFDAILYYYQSGGRIRRPVN [KCNA3] | 2.3 ± 0.22 | 2.58 ± 0.31 |
| RPKLSEEQQRIIAILLDAHHKTYD [VDR] | 2.58 ± 0.28 | 2.75 ± 0.41 |
| RPLRSREFPQFEPQRYPACAQMLP [TRAF3IP2] | 3.07 ± 0.44 | 3.44 ± 0.15 |
| RPRQRQRVYPKCTWLTTPKSTWPR [TCF25] | 3.17 ± 0.43 | 3.23 ± 0.2 |
| RPVNKLAELQCEVAALREEQKVLS [RASAL3] | 3.99 ± 0.35 | 4.19 ± 0.26 |
| RQARKKGRHLELANQKLSEKLAAG [CCDC3] | 4.777 ± 0.006 | – |
| RQKKLMHKLQEEKAFREEMKIFRE [CCDC70] | 3.37 ± 0.28 | 3.59 ± 0.35 |
| RQVLCEKCKSTLSPPEASPGPPAA [PWWP2B] | 4.88 ± 0.14 | 4.83 ± 0.37 |
| RRKACQACRFTKCLRVGMLKEGVR [ESRRA] | 2.23 ± 0.25 | 2.3 ± 0.51 |
| RRLKQAKEEAQAEIEQYRLQREKE [ATP6V1G1] | 5.47 ± 0.33 | 5.38 ± 0.25 |
| RRRFREKKKAIQEEEERDQALQAK [YJU2B] | 5.26 ± 0.36 | 5.33 ± 0.23 |
| RSLQRGCRALRDPALDSLAYEYER [TRADD] | 3.13 ± 0.059 | 3.47 ± 0.32 |
| RSPYAGLQLGAAKKPPVTFAEKGE [TRIM29] | 4.09 ± 0.22 | 4.26 ± 0.2 |
| RSVKVICLGSLASKLSRKYVKAKK [FAN1] | 2.37 ± 0.25 | 2.37 ± 0.28 |
| RSVSEPRDQHPQPSLGDSLESIPS [RTN2] | 5.34 ± 0.41 | 5.17 ± 0.24 |
| RTIAETEAAYLKILESSQTLLSVL [SSNA1] | 2.33 ± 0.29 | 2.72 ± 0.27 |
| RTVNALEIELQAQHNLRDSLENTL [KRT34] | 3.41 ± 0.064 | 3.64 ± 0.42 |
| RVFSQGSHAWEVALGGLQSWRVGV [TRIM35] | 2.46 ± 0.42 | 2.31 ± 0.38 |

| Sequence | protein stability index (treatment: DMSO) | protein stability index (treatment: MLN4924 1 uM, 8 h) |
| --- | --- | --- |
| RVNKEHEHKLKVVRDQISHCTVKL [TRIM9] | 3.29 ± 0.31 | 3.39 ± 0.29 |
| RVQPVKDTAHDFRAKCRNMEHALR [TRIM35] | 2.96 ± 0.44 | 3.25 ± 0.36 |
| RVYHGWLFEGLGRDKAEELLQLPD [SLA] | 3.01 ± 0.53 | 2.82 ± 0.57 |
| RWWEDLERDFPCPVCRKTSRYRSL [TRIM39] | 2.36 ± 0.21 | 2.77 ± 0.56 |
| RYALQLQQIQGLISSIEAQLSELR [KRT13] | 3.17 ± 0.14 | 3.38 ± 0.35 |
| RYDPEPKSKWDEEWDKNKSAFPFS [CLINT1] | 3.84 ± 0.36 | 3.89 ± 0.21 |
| RYHLQQNVHFKEETVKLFICELVM [STK32A] | 2.35 ± 0.41 | 2.46 ± 0.26 |
| RYVEFNLLYDRGTKFGLFTPGSRI [CPOX] | 2.52 ± 0.75 | 2.26 ± 0.27 |
| SAILQFPSTLGRCKAFSTCVSHLI [OR10K2] | 2.5 ± 0.55 | 2.59 ± 0.3 |
| SCLLPSSEAKLYGRCELARVLHDF [SPACA3] | 2.08 ± 0.57 | 2.1 ± 0.26 |
| SDCEEEEEEEEEEGSGHSTGEDSA [WEE1] | 5.57 ± 0.2 | 5.49 ± 0.33 |
| SDFQIEPGFYATYESTLFEDQVPA [MIA2] | 3.92 ± 0.27 | 3.7 ± 0.31 |
| SDSGKDLPEPSKRGPPHGWPKLCP [MYCL] | 4.27 ± 0.1 | 4.63 ± 0.078 |
| SEGDLKNAIRVHHALATRASDYSK [PSD2] | 4.04 ± 0.11 | 4.22 ± 0.18 |
| SEGSSSSSSSSSSSSSSASSSASS [NFE2L1] | 5.57 ± 0.16 | 5.53 ± 0.2 |
| SEKASKKYVSKELAKEIRVKAEPF [EIF5] | 4.29 ± 0.28 | 4.36 ± 0.18 |
| SELSESAFGYFITACAVIILTIIC [SLC29A1] | 2.03 ± 0.21 | 2.12 ± 0.39 |
| SFGVDEEERVRVLQGVRLSENVVN [CHCHD6] | 4.39 ± 0.2 | 4.59 ± 0.15 |
| SFIITLGCNSVLIQFATPNDFCSF [CARM1] | 3.3 ± 0.25 | 2.75 ± 0.45 |
| SGESNSAVSTEDLKECLKKQLEFC [LARP4] | 4.43 ± 0.49 | 4.64 ± 0.19 |
| SGGRGPQGDKAIREQGPREQEPEL [PBXIP1] | 5.44 ± 0.19 | 5.5 ± 0.25 |
